The target in the assay is recombinant GRD domain of GAPA (37 kDa GRD polypeptide) (D. discoideum). The experiment in a line: SEC; analytical gel filtration on Sephadex G75 (SMART system) of the purified GRD domain; OD280. A general note: SEC sorts molecules by how far they enter the pores of the column.

Consider “recombinant GRD domain of GAPA (37 kDa GRD polypeptide) (domain or fragment)”, for which the stoichiometry N worked out at 3.

A word on the stoichiometry N: it is the number of molecules, sites or subunits per partner or assembly.

These data come from paper PMC2978108.
